The values that follow come from patent publication US20180305451A1.

For experiment [1], the target named is putative molecular counterpart of HIDE1 on T cells. Description: flow cytometry on U937 human myeloid cell line, live singlets; PE tetramer at 3 µg/well (60 µg/ml); the text calls this no binding; Tetramer-EGFR in the same box reads 79.6. (In flow cytometry, cells or beads pass a laser one at a time.)
The target is the same in experiment [2]. Kind of experiment: flow cytometry on H9 human T cell line, live singlets; PE tetramer at 3 µg/well (60 µg/ml).
Experiment [3] shares this target. Kind of experiment: FACS, tetramer on CD4+ T cells activated for 72 h.
For experiment [4] the target is unchanged. Kind of experiment: flow cytometry on H9 human T cell line, live singlets; negative control PE tetramer at 3 µg/well (60 µg/ml).

Turning to “HIDE1 tetramer (from UniProt A8MVS5 20-117)”, the Geometric Mean (B2-A) amounted to 86.2 in experiment [1] and 731 in experiment [2]. In addition, the fold increase in the Geo Mean compared to EGFR negative control in experiment [3] was found to be 3 fold.

In experiment [4], Tetramer-EGFR (from UniProt P00533) returned a Geometric Mean (B2-A) of 82.1.
